In patent publication US20170247475A1 (Boehringer Ingelheim, published 2017):

Key:
[1] = target: T1, recombinant human VEGF165 (human, UniProt P15692-4 27-191); assay: VEGF165/VEGFR2 AlphaScreen
T1 construct: also called hVEGF165; rhVEGF165

[2] = target: T1, recombinant human VEGF165; assay: Biacore, periplasmic extract on hVEGF165 chip, two phase decay fit
Protocol: (§1) Dissociation rates of inhibitory VHHs are analyzed on Biacore (Biacore T100 instrument, GE Healthcare). HBS-EP+ buffer is used as running buffer and experiments are performed at 25° C. […] After immobilization, surfaces are deactivated with 10 min injection of 1M ethanolamine pH8.5. A reference surface is activated and deactivated with respectively EDC/NHS and ethanolamine. Periplasmic extracts of VHHs are injected at a 10-fold dilution in running buffer for 2 min at 45 μl/min and allowed to dissociate for 10 or 15 min. Between different samples, the surfaces are regenerated with regeneration buffer. Data are double referenced by subtraction of the curves on the reference channel and of a blank running buffer injection. […] is evaluated by fitting a two phase decay model in the Biacore T100 Evaluation software v2.0.1.

[3] = target: T1, recombinant human VEGF165; assay: Biacore, periplasmic extract on hVEGF165 chip
Protocol: as §1

T1 sequence (P15692 other isoform, or with tags, fused parts or gaps limits assumed): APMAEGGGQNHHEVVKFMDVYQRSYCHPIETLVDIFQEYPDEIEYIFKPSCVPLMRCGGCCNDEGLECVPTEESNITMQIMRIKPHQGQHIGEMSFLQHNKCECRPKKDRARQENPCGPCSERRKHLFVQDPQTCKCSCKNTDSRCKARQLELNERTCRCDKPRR

Binder | % inhibition [1] [%] | IC50 [1] [pM] | % fast [2] [%] | Binding level (RU) [3] [RU]
VEGFBII22B06 (VHH, periplasmic extract) VHH: EVQLVESGGGLVQPGDSLKLSCAASGRTFSSYSMGWFRQAQGKEREFVVAISSSGGYIYDSVSLEGRFTISRDNTKNTVYLQTPSLKPEDTAVYYCAASRAYGSSRLRLADTYDYWGQGTQVTVSS | – | – | 23 | 168
VEGFBII40H10 (VHH, periplasmic extract) VHH: EVQLMESGGGLVQPGDSLKLSCAFSGRTFSSYSMGWFRQAQGKEREFVVAISSSGGYIYDSVSLEGRFTISRDNTKNTVYLQTPSLKPEDTADYYCAASRAYGSSRLRLADTYDYWGQGTQVTVSS | – | – | 17 | 200
VEGFBII42D05 (VHH, periplasmic extract) VHH: EVQLVESGGGLVQPGDSLKLSCAFSGRTFSSYSMGWFRQAQGKEREFVVAISSSGGYIYDSVSLEGRFTISRDNTKNTVYLQTPSLKPEDTAVYYCAASRAYGSSRLRLADTYDYWGQGTQVTVSS | – | – | 26 | 77
VEGFBII23F05 (VHH, periplasmic extract) VHH: EVQLVESGGGLVQAGDSLRLSCAASGRTFSSYSMGWFRQAQGKEREFVVAISSSGNYKYDSVSLEGRFTISRDNTKNTVYLQINSLKPKDTAVYYCAASRAYGSSRLRLGDTYDYWGQGTQVTVSS | – | – | 29 | 198
VEGFBII42A05 (VHH, periplasmic extract) VHH: EVQLVESGGGLVQPGDSLKLSCAFSGRTFSSYSMGWFRQAQGKEREFVVAISSSGGYIYDSVSLEGRFTISRDNTKNTVYLQMPSLKPEDTADYYCAASRAYGSSRLRLADTYDYWGQGTQVTVSS | – | – | 25 | 118
VEGFBII30E07 (VHH, periplasmic extract) VHH: EVQLVESGGGLVQAGDSLRLSCAASGRTFSSYSMGWFRQAQGKEREFVVAISSSGNYKYDSVSLEGRFTISRDNTKNTVYLQINSLKPEDTAVYYCAASRAYGSSRLRLGDTYDYWGQGTRVTVSS | – | – | 29 | 226
VEGFBII23G03 (VHH, periplasmic extract) VHH: EVQLVESGGGLVQPGDSLKLSCAFSGRTFGSYSMGWFRQAQGKEREFVVAISSSGGYIYDSVSLEGRFTISRDNSKNTVYLQTPSLKPEDTAVYYCAASRAYGSSRLRLPGTYDYWGQGTQVTVSS | – | – | 28 | 141
VEGFBII40G07 (VHH, periplasmic extract) VHH: EVQLVESGGGLVQPGDSLKLSCAFSGRTFSSYSMGWFRQAQGKEREFVVAISSSGGYIYDSVSLEGRFTISRDNTKNAVYLQTPSLKPEDTADYYCAASRAYGSSRLRLADTYDYWGQGTQVTVSS | – | – | 19 | 139
VEGFBII22B07 (VHH, periplasmic extract) VHH: EVQLVESGGGLVQAGDSLRLSCAASGRTFSSYSMGWFRQAQGKEREFVVAISSSGNYKYDSVSLEGRFTISRDNTKNTVYLQINSLKPEDTAVYYCAASRAYGSSRLRLGDTYDYWGQGTQVTVSS | – | – | 31 | 328
VEGFBII23A09 (VHH, periplasmic extract) VHH: EVQLVESGGGLVQPGDSLKLSCAFSGRTFGSYSMGWFRQAQGKEREFVVAISSSGGYIYDSVSLEGRFTISRDNSKNTVYLQTPSLKPEDTAVYYCAASRAYGSSRLRLPDTYDYWGQGTQVTVSS | – | – | 20 | 247
VEGFBII39E02 (VHH, periplasmic extract) VHH: EVQLVESGGGLVQPGDPLKLSCAFSGRTFSSYSMGWFRQAQGKEREFVVAISSSGGYIYDSVSLEGRFTISRDNTKNTVYLQTPSLKPEDTADYYCAASRAYGSSRLRLADTYDYWGQGTQVTVSS | – | – | 13 | 181
VEGFBII31C07 (VHH, periplasmic extract) VHH: EVQLVESGGGLVQTGDSLRLSCAASGGTFSSYSMGWFRQAQGKEREFVVAISSSGGYIYDSVSLEGRFTISRDNTKNTVYLQTPSLKPEDTADYYCAASRAYGSSRLRLADTYDYWGQGTQVTVSS | – | – | 25 | 77
VEGFBII39G04 (VHH, periplasmic extract) VHH: EVPLVESGGGLVQAGDSLRLSCAASGRTFSSYSMGWFRQAQGKEREFVVAISSSGNYKYDSASLEGRFTISRDNTKNTVYLQINSLKPEDTAVYYCAASRAYGSSRLRLGDTYDYWGQGTQVTVSS | – | – | 40 | 210
VEGFBII23F11 (VHH, periplasmic extract) VHH: EVQLVESGGGLVQPGDSLKLSCAFSGRTFSSYSMGWFRQAQGKEREFVVAISSGGGYIYDSVSLEGRFTISRDNTKNTVYLQTPSLKPEDTADYYCAASRAYGSSRLRLADTYDYWGQGTQVTVSS | – | – | 22 | 134

Now from value to binder:

% inhibition [1] [%] | IC50 [1] [pM] | % fast [2] [%] | Binding level (RU) [3] [RU] | Binder
100 | 209 | – | – | VEGFBII111D05 (VHH) VHH: EVQLVESGGGLVQTGGSLRLSCEASGRTFSSYSMGWFRQAPGKEREFVVAISKGGYKYDSVSLEGRFTISRDNAKNTVYLQINSLRPEDTAVYYCASSRAYGSSRLRLADTYEYWGQGTLVTVSS
100 | 366 | – | – | VEGFBII111G06 (VHH) VHH: EVQLVESGGGLVQPGGSLRLSCAASGRTFSSYSMGWFRQAPGKEREFVVAISKGGYKYDSVSLEGRFTISRDNAKNTVYLQMNSLRPEDTAVYYCASSRAYGSSRLRLADTYEYWGQGTLVTVSS
100 | 215 | – | – | VEGFBII114C09 (VHH) VHH: EVQLVESGGGLVQPGDSLRLSCEVSGRTFSSYSMGWFRQAPGKEREFVVAISKGGYKYDSVSLEGRFTISKDNAKNTVYLQINSLRPEDTAVYYCASSRAYGSSRLRLADTYEYWGQGTLVTVSS
100 | 227 | – | – | VEGFBII114D03 (VHH) VHH: EVQLVESGGGLVQTGDSLRLSCAVSGRTFSSYSMGWFRQAQGKEREFVVAISKGGYKYDSVSLEGRFTISKDNAKNTVYLQINSLRPEDTAVYYCASSRAYGSSRLRLADTYEYWGQGTLVTVSS
100 | 290 | – | – | VEGFBII113E03 (VHH) VHH: EVQLVESGGGLVQTGDSLRLSCEVSGRTFSSYSMGWFRQAQGKEREFVVAISKGGYKYDSVSLEGRFTISKDNAKNTVYLQMNSLRPEDTAVYYCASSRAYGSSRLRLADTYEYWGQGTLVTVSS
100 | 221 | – | – | VEGFBII112D11 (VHH) VHH: EVQLVESGGGLVQPGGSLRLSCEASGRTFSSYSMGWFRQAPGKEREFVVAISKGGYKYDSVSLEGRFTISRDNAKNTVYLQINSLRPEDTAVYYCASSRAYGSSRLRLADTYEYWGQGTLVTVSS
100 | 189 | – | – | VEGFBII118E10 (VHH, VEGFBII23B04 with the S60A mutation, purified protein) VHH: EVQLVESGGGLVQTGDSLRLSCEVSGRTFSSYSMGWFRQAQGKEREFVVAISKGGYKYDAVSLEGRFTISKDNAKNTVYLQINSLKPEDTAVYYCASSRAYGSSRLRLADTYEYWGQGTQVTVSS
100 | 199 | – | – | VEGFBII114D02 (VHH) VHH: EVQLVESGGGLVQTGGSLRLSCEVSGRTFSSYSMGWFRQAPGKEREFVVAISKGGYKYDSVSLEGRFTISRDNAKNTVYLQINSLRPEDTAVYYCASSRAYGSSRLRLADTYEYWGQGTLVTVSS
100 | 253 | – | – | VEGFBII113A08 (VHH) VHH: EVQLVESGGGLVQTGGSLRLSCEVSGRTFSSYSMGWFRQAPGKEREFVVAISKGGYKYDSVSLEGRFTISKDNAKNTVYLQINSLRPEDTAVYYCASSRAYGSSRLRLADTYEYWGQGTLVTVSS
– | – | 20 | 106 | VEGFBII60A09 (VHH, periplasmic extract) VHH: EVQLVESGGGLVQPGDSLKLSCAFSGRTFSSYSMGWFRQAQGKEREFVVAISSSGGYIYDSVSLEGRFTISRDNTRNTVYLQTPSLKPEDTADYYCAASRAYGSSRLRLADTYDYWGQGTQVTVSS
– | – | 24 | 76 | VEGFBII56E11 (VHH, periplasmic extract) VHH: EVQLVESGGGLVQPGDSLKLSCAFSGRTFSSYSMGWFRQAQGKEREFVVAISSSGGYIYDSVSLEGRFTISRDNTKNTVYLQTPSLKPEDAADYYCAASRAYGSSRLRLADTYDYWGQGTQVTVSS
– | – | 23 | 84 | VEGFBII62A09 (VHH, periplasmic extract) VHH: EVQLVESGGDLVQPGDSLKLSCAASGRTFSSYSMGWFRQAQGKEREFVVAISSSGGYIYDSVSLEGRFTISRDNTKNTVYLQTPSLKPEDTAVYYCAASRAYGSSRLRLADTYDYWGQGTQVTVSS
– | – | 40 | 94 | VEGFBII62D10 (VHH, periplasmic extract) VHH: EVQLVESEGGLVQAGDSLRLSCAASGRTFSSYSMGWFRQAQGKEREFVVAISSSGNYKYDSVSLEGRFTISRDNTKNTVYLQINSLKPEDTAVYYCAASRAYGSSRLRLGDTYDYWGQGTQVTVSS
